Measurements: ChEMBL document CHEMBL3526030, “Transport of the coumarin metabolite 7-hydroxycoumarin glucuronide is mediated via multidrug resistance-associated proteins 3 and 4” (Drug Metab Dispos, 2012)

Tests used:
[1] = substrate: O=C(O)[C@H]1O[C@@H](Oc2ccc3ccc(=O)oc3c2)[C@H](O)[C@@H](O)[C@@H]1O; assay: Activity at MRP3 (unknown origin) expressed in baculovirus-infected HEK293 cells assessed as drug transport after 10 mins by Michaelis-Menten plot analysis; assay type: ADME, Homo sapiens
[2] = substrate: O=C(O)[C@H]1O[C@@H](Oc2ccc3ccc(=O)oc3c2)[C@H](O)[C@@H](O)[C@@H]1O; assay: Activity at MRP4 (unknown origin) expressed in baculovirus-infected HEK293 cells assessed as drug transport after 10 mins by Michaelis-Menten plot analysis; assay type: ADME, Homo sapiens

Protein	Km [1] [µM]	Vmax [1] [µmol/min/mg]	Km [2] [µM]	Vmax [2] [µmol/min/mg]
ATP-binding cassette sub-family C member 3 (Homo sapiens) (protein) MDALCGSGELGSKFWDSNLSVHTENPDLTPCFQNSLLAWVPCIYLWVALPCYLLYLRHHCRGYIILSHLSKLKMVLGVLLWCVSWADLFYSFHGLVHGRAPAPVFFVTPLVVGVTMLLATLLIQYERLQGVQSSGVLIIFWFLCVVCAIVPFRSKILLAKAEGEISDPFRFTTFYIHFALVLSALILACFREKPPFFSAKNVDPNPYPETSAGFLSRLFFWWFTKMAIYGYRHPLEEKDLWSLKEEDRSQMVVQQLLEAWRKQEKQTARHKASAAPGKNASGEDEVLLGARPRPRKPSFLKALLATFGSSFLISACFKLIQDLLSFINPQLLSILIRFISNPMAPSWWGFLVAGLMFLCSMMQSLILQHYYHYIFVTGVKFRTGIMGVIYRKALVITNSVKRASTVGEIVNLMSVDAQRFMDLAPFLNLLWSAPLQIILAIYFLWQNLGPSVLAGVAFMVLLIPLNGAVAVKMRAFQVKQMKLKDSRIKLMSEILNGIKVLKLYAWEPSFLKQVEGIRQGELQLLRTAAYLHTTTTFTWMCSPFLVTLITLWVYVYVDPNNVLDAEKAFVSVSLFNILRLPLNMLPQLISNLTQASVSLKRIQQFLSQEELDPQSVERKTISPGYAITIHSGTFTWAQDLPPTLHSLDIQVPKGALVAVVGPVGCGKSSLVSALLGEMEKLEGKVHMKGSVAYVPQQAWIQNCTLQENVLFGKALNPKRYQQTLEACALLADLEMLPGGDQTEIGEKGINLSGGQRQRVSLARAVYSDADIFLLDDPLSAVDSHVAKHIFDHVIGPEGVLAGKTRVLVTHGISFLPQTDFIIVLADGQVSEMGPYPALLQRNGSFANFLCNYAPDEDQGHLEDSWTALEGAEDKEALLIEDTLSNHTDLTDNDPVTYVVQKQFMRQLSALSSDGEGQGRPVPRRHLGPSEKVQVTEAKADGALTQEEKAAIGTVELSVFWDYAKAVGLCTTLAICLLYVGQSAAAIGANVWLSAWTNDAMADSRQNNTSLRLGVYAALGILQGFLVMLAAMAMAAGGIQAARVLHQALLHNKIRSPQSFFDTTPSGRILNCFSKDIYVVDEVLAPVILMLLNSFFNAISTLVVIMASTPLFTVVILPLAVLYTLVQRFYAATSRQLKRLESVSRSPIYSHFSETVTGASVIRAYNRSRDFEIISDTKVDANQRSCYPYIISNRWLSIGVEFVGNCVVLFAALFAVIGRSSLNPGLVGLSVSYSLQVTFALNWMIRMMSDLESNIVAVERVKEYSKTETEAPWVVEGSRPPEGWPPRGEVEFRNYSVRYRPGLDLVLRDLSLHVHGGEKVGIVGRTGAGKSSMTLCLFRILEAAKGEIRIDGLNVADIGLHDLRSQLTIIPQDPILFSGTLRMNLDPFGSYSEEDIWWALELSHLHTFVSSQPAGLDFQCSEGGENLSVGQRQLVCLARALLRKSRILVLDEATAAIDLETDNLIQATIRTQFDTCTVLTIAHRLNTIMDYTRVLVLDKGVVAEFDSPANLIAARGIFYGMARDAGLA	187	0.00046		
ATP-binding cassette sub-family C member 4 (Homo sapiens) (protein) MLPVYQEVKPNPLQDANLCSRVFFWWLNPLFKIGHKRRLEEDDMYSVLPEDRSQHLGEELQGFWDKEVLRAENDAQKPSLTRAIIKCYWKSYLVLGIFTLIEESAKVIQPIFLGKIINYFENYDPMDSVALNTAYAYATVLTFCTLILAILHHLYFYHVQCAGMRLRVAMCHMIYRKALRLSNMAMGKTTTGQIVNLLSNDVNKFDQVTVFLHFLWAGPLQAIAVTALLWMEIGISCLAGMAVLIILLPLQSCFGKLFSSLRSKTATFTDARIRTMNEVITGIRIIKMYAWEKSFSNLITNLRKKEISKILRSSCLRGMNLASFFSASKIIVFVTFTTYVLLGSVITASRVFVAVTLYGAVRLTVTLFFPSAIERVSEAIVSIRRIQTFLLLDEISQRNRQLPSDGKKMVHVQDFTAFWDKASETPTLQGLSFTVRPGELLAVVGPVGAGKSSLLSAVLGELAPSHGLVSVHGRIAYVSQQPWVFSGTLRSNILFGKKYEKERYEKVIKACALKKDLQLLEDGDLTVIGDRGTTLSGGQKARVNLARAVYQDADIYLLDDPLSAVDAEVSRHLFELCICQILHEKITILVTHQLQYLKAASQILILKDGKMVQKGTYTEFLKSGIDFGSLLKKDNEESEQPPVPGTPTLRNRTFSESSVWSQQSSRPSLKDGALESQDTENVPVTLSEENRSEGKVGFQAYKNYFRAGAHWIVFIFLILLNTAAQVAYVLQDWWLSYWANKQSMLNVTVNGGGNVTEKLDLNWYLGIYSGLTVATVLFGIARSLLVFYVLVNSSQTLHNKMFESILKAPVLFFDRNPIGRILNRFSKDIGHLDDLLPLTFLDFIQTLLQVVGVVSVAVAVIPWIAIPLVPLGIIFIFLRRYFLETSRDVKRLESTTRSPVFSHLSSSLQGLWTIRAYKAEERCQELFDAHQDLHSEAWFLFLTTSRWFAVRLDAICAMFVIIVAFGSLILAKTLDAGQVGLALSYALTLMGMFQWCVRQSAEVENMMISVERVIEYTDLEKEAPWEYQKRPPPAWPHEGVIIFDNVNFMYSPGGPLVLKHLTALIKSQEKVGIVGRTGAGKSSLISALFRLSEPEGKIWIDKILTTEIGLHDLRKKMSIIPQEPVLFTGTMRKNLDPFNEHTDEELWNALQEVQLKETIEDLPGKMDTELAESGSNFSVGQRQLVCLARAILRKNQILIIDEATANVDPRTDELIQKKIREKFAHCTVLTIAHRLNTIIDSDKIMVLDSGRLKEYDEPYVLLQNKESLFYKMVQQLGKAEAAALTETAKQVYFKRNYPHIGHTDHMVTNTSNGQPSTLTIFETAL			63	0.00092
